Results: article PMC6048507
Like-named read-outs stand apart in the source and are kept apart here.

What was measured:
[1] = biological target: mavirus cysteine protease (MVP) (mavirus)
[2] = biological target: mavirus major capsid protein truncated at the C terminus (MCPΔC, res. 1–516), purified capsomer (mavirus); experiment: crystal structure
[3] = biological target: mavirus major capsid protein truncated at the C terminus (MCPΔC, res. 1–516), purified capsomer (mavirus)
[4] = biological target: mavirus major capsid protein, full-length (flMCP), purified capsomer (mavirus); experiment: crystal structure
[5] = biological target: mavirus major capsid protein, full-length (flMCP), purified capsomer (mavirus)
[6] = biological target: mavirus penton protein (minor capsid protein, MV17), purified (mavirus); experiment: crystal structure
[7] = biological target: mavirus penton protein (minor capsid protein, MV17), purified (mavirus)

Substance: mavirus cysteine protease (MVP) (enzyme)
- stoichiometry N [1]: 2

Substance: mavirus major capsid protein truncated at the C terminus (MCPΔC, res. 1–516), purified capsomer (domain or fragment)
- stoichiometry N [2]: 3
- stoichiometry N [3]: 3

Substance: mavirus major capsid protein, full-length (flMCP), purified capsomer (natural protein)
- stoichiometry N [4]: 3
- stoichiometry N [5]: 3

Substance: mavirus penton protein (minor capsid protein, MV17), purified (natural protein)
- stoichiometry N [6]: 5
- stoichiometry N [7]: 5
